Read-outs that look alike come from different tables or passages of the source.
Experiments:
ts13 BHK tk− cells = assay: ED50 determination with GCV or ACV in transfected BHK tk− cells (Alamar Blue); format: cell-based, baby hamster; conditions: pooled G418-resistant transfectants, 4 days on nucleoside analog
Method: Briefly, the cell transfections are performed as follows. Approximately 5×10^5 ts13 BHK tk^− cells (ATCC CRL-1632) are plated on 100 mm dishes in DMEM+10% calf serum. For each transfection 1 μg of pSV2neo and 10 μg of a pCMV construct (pCMV, pCMV:TK-wrong (HSVTK in the wrong orientation relative to the promoter), pCMV:HSVTK, pCMV:30, pCMV:75 or pCMV:132 DNA) in 0.25M CaCl2 are mixed with 0.5 ml 2×BBS (see Chen and Okayama) and preincubated at 37° C. at 2.5% CO2 […]. The CaCl2/DNA mix is added dropwise to the plates and mixed in well. After a 24 hour incubation at 37° C. in a 2.5% CO2 wet incubator, the cells are rinsed twice with Dulbecco PBS minus Ca/Mg and fed with fresh DMEM+10% calf serum. Plates are incubated at 37° C. with 6% CO2. After 72 hours post-transfection the cells are split 1:3 and plated in DMEM+10% calf serum containing G418 at 600 μg/ml.
The cells are selected on G418 (600 μg/ml) at 37° C. for 17 days. During this time the plates are pooled (for each DNA transfection) and split three times at a ratio of 1:3. Approximately 30-40 clones are selected in this manner for each transfected DNA containing a tk gene in the correct orientation. The pCMV and pCMV:TK-wrong transfections yielded between 130 and 140 clones each. […]
Determination of the fluorescence level of cells incubated in the presence of Alamar Blue directly relates to cell viability.

[1] = Enzyme kinetics of purified TK, thymidine; format: biochemical; conditions: substrate thymidine
Method: (§1) A single colony of pET23d:HSVTK, pET23d:30, pET23d:75 and pET23d:132 in BL21(DE3)tk^− cells is used to inoculate 5 ml of M9ZB medium (1% tryptone, 0.5% NaCl, 1×M9 salts, 1 mM MgSO4, 100 μM CaCl2 and 0.2% glucose) containing cabenicillin at 20 μg/ml. The culture is incubated at 37° C. overnight. The following day the 5 ml culture is used to inoculate 1L M9ZB+cabenicillin at 20 μg/ml and the culture allowed to grow at 37° C. to OD600 0.1. At that point IPTG is added to 0.4 mM and the culture incubated a further 3 hours. The cells are chilled on ice, pelleted by centrifugation and the pellets washed once in cell wash buffer (50 mM Tris, pH 7.5, 5mM EDTA, 10% sucrose) prior to freezing the pellets at −70° C. […]
(§2) A thymidylyl-sepharose column is used for a one step purification procedure (see Example 2). […] The extent of purification is monitored by Coomassie stained SDS:PAGE analysis and the concentration of purified protein determined using the BioRad Reagent (Bradford Reagent). […]
(§3) The kinetics of thymidine, ganciclovir and acyclovir phosphorylation by the wild-type, mutant 30 and 75 thymidine kinase enzymes with variant concentrations of radioactive nucleoside substrate are determined essentially as described in Example 3. Km and Vmax values are determined from double reciprocal plots and kcat values are calculated using the equation Vmax=kcat [Eo] where [Eo] is the total enzyme concentration. […]

[2] = Enzyme kinetics of purified TK, ganciclovir; format: biochemical; conditions: substrate ganciclovir
Method: as §1, §2, §3

BHK tk− cells = assay: Sensitivity of guanylate kinase transfectant pools to ACV in TK expressing clones; format: cell-based, baby hamster; conditions: three days with ACV
Method: pREP8-7, pREP8-7:hgmk and pREP8-7:mgmk are used to transfect BHK tk, TK-transfected clone C3 and 75-transfected clone D4. Histidinol is used to select pools of stable transfectants and to isolate individual clones.
As in Example 8, pools of transfectants are placed in 96 well microtiter dishes at 1000 cells/well. Eight replicates are incubated for three days in the presence of various GCV or ACV concentrations.

Molecule	EC50 (ts13 BHK tk− cells; read-out: ED50 ACV) [µM]	EC50 (ts13 BHK tk− cells; read-out: ED50 GCV) [µM]	Km [1] [µM]	kcat ([1]; per active site)	Km [2] [µM]	kcat ([2]; per active site)	increased sensitivity to ACV relative to TK expression alone (BHK tk− cells)
WT: wild-type HSV-1 thymidine kinase with McKnight sequence (pT7:HSVTKII and derived vectors)	25	20	0.38	.230 s⁻¹	47.6	.050 s⁻¹	
Guanylate kinase: human or murine guanylate kinase expressed from pREP8-7 in wild-type TK clone C3 cells (protein, UniProt Q16774 2-197, looked up) Guanylate kinase: SGPRPVVLSGPSGAGKSTLLKRLLQEHSGIFGFSVSHTTRNPRPGEENGKDYYFVTREVMQRDIAAGDFIEHAEFSGNLYGTSKVAVQAVQAMNRICVLDVDLQGVRNIKATDLRPIYISVQPPSLHVLEQRLRQRNTETEESLVKRLAAAQADMESSKEPGLFDVVIINDSLDQAYAELKEALSEEIKKAQRTGA							approximately 2 fold
